Literature values in paper PMC2920229.

Target: HIV-1 protease (Human immunodeficiency virus 1) (UniProt O93215)

Question: Which Kd does the source give for HIV-1 protease (from UniProt O93215) here?
Answer: < 5 nM
